Stoichiometry N data for one molecule are collected here from publication PMC11457148.

For the assay, the target named is Isu1 (mature, residues 36-165) with the C-terminal His tag (S. cerevisiae) (UniProt Q03020). Put plainly: native MS.

B1: Hsc20 without tag, co-expressed with Isu1 and Ssq1* (natural protein)
chain: TSTFYELFPKTFPKKLPIWTIDQSRLRKEYRQLQAQHHPDMAQQGSEQSSTLNQAYHTLKDPLRRSQYMLKLLRNIDLTQEQTSNEVTTSDPQLLLKVLDIHDELSQMDDEAGVKLLEKQNKERIQDIEAQLGQCYNDKDYAAAVKLTVELKYWYNLAKAFKDWAPGKQLEMNH
Regarding B1, the stoichiometry N (as a rule, the number of molecules, sites or subunits per partner or assembly) was 1.
